Laboratory results taken from US5811533, “High-affinity oligonucleotide ligands to vascular endothelial growth factor (VEGF)” (NeXstar Pharmaceuticals, Inc.).

B1: ssDNA b53 (ssDNA)
DNA: CTACCTACGATCTGACTAGCGCAAGGGCATCTCGGAATCGGTTAATCTGACTTGCAATACGCTTAGCTTACTCTCATGTAGTTCCT
B2: ssDNA b85 (ssDNA)
DNA: CTACCTACGATCTGACTAGCGAGGAGGTGCGTTGTCCGAAGGGGTCGTTAGTCACCTCGTGCTTAGCTTACTCTCATGTAGTTCCT
B3: 88t (ssDNA)
DNA: GCAAGGGGTCCTGCCGAATGGGGGAATACGCTAGCCGAAA
B4: 30B (ssRNA)
RNA: GGGAGGACGAUGCGGCAUGGUUGUGAACUGUUGUGAUCAAUGCGGGGAGGGUAAUGGUGGGUGGUCAGACGACUCGCCCGA
modifications: 2'-NH2 pyrimidines
B5: ssDNA b98 (ssDNA)
DNA: CTACCTACGATCTGACTAGCGATCCACGAAGAAGCTTACTCTCATGTAGTTCCAGCTTACTCTCATGTAGTTCCT
B6: NX-176 (ssRNA)
RNA: ACCCUGAUGGUAGACGCCGGGGUG
modifications: modified variant of NX-107 (position code lost in text)
B7: NX-214 (mixed)
mixed: TTTTACCCUGAUGGUAGACGCCGGGGUGTTTTT
modifications: 2'-NH2/2'-OMe variant (position code lost in text); 5' and 3' phosphorothioate thymidine caps
B8: NX-191 (mixed)
mixed: B7 mixed
modifications: all 2'-OMe core; 5' and 3' phosphorothioate thymidine caps
B9: NX-213 (mixed)
mixed: B7 mixed
modifications: 2'-NH2 pyrimidines; all purines 2'-OMe except four; 5' and 3' phosphorothioate thymidine caps
B10: NX-215 (mixed)
mixed: B7 mixed
modifications: as NX-213 plus internal phosphorothioate between A7 and U8
B11: NX-178 (mixed)
mixed: B7 mixed
modifications: 2'-NH2 pyrimidines; 5' T*T*T*T* and 3' T*T*T*T*T phosphorothioate thymidine caps
B12: ssDNA b81 (ssDNA)
DNA: CTACCTACGATCTGACTAGCCCGAATGGGGCTGCGACTGCAGTGGACGTCACGTCGTTAGCTTACTCTCATGTAGTTCCT
B13: 17B (ssRNA)
RNA: GGGAGGACGAUGCGGCGCUGUGUUCAAUGCGGGGAUCGGGCCGGAGGAUGAACAAAUGGCGGGUCAGACGACUCGCCCGA
modifications: 2'-NH2 pyrimidines
B14: ssDNA b65 (ssDNA)
DNA: CTACCTACGATCTGACTAGCCGAGGTCCCCCACTGGATAGAGTTGTTGAAACAACGGTGCGCTTAGCTTACTCTCATGTAGTTCCT
B15: ssDNA b95 (ssDNA)
DNA: CTACCTACGATCTGACTAGCCCACTGCATAGAGAACTGGATCGACGGTCCAAAGTTCGGTGCTTAGCTTACTCTCATGTAGTTCCT
B16: ssDNA 10 (ssDNA)
DNA: ATCCGCCTGATTAGCGATACTGTACCATCCACGGTTTACGTGGACAAGAGGGCCCTGGTACACTTGAGCAAAATCACCTGCAGGGG
B17: ssDNA 23 (ssDNA)
DNA: ATCCGCCTGATTAGCGATACTGGGCATCTAACCCAGACCTACCGGAACGTTATCGCTTGTGACTTGAGCAAAATCACCTGCAGGGG
B18: ssDNA 15 (ssDNA)
DNA: ATCCGCCTGATTAGCGATACTACCGCTGTGTAGTTCCTTTAGGACTAGAGGGCCGCCTACACTTGAGCAAAATCACCTGCAGGGG
B19: ssDNA 1 (ssDNA)
DNA: ATCCGCCTGATTAGCGATACTTCTGCGAGAGACCTACTGGAACGTTTTGTGATATTCACAACTTGAGCAAAATCACCTGCAGGGG
B20: ssDNA b59 (ssDNA)
DNA: CTACCTACGATCTGACTAGCAACACGAGCATGTGGGGTCCCTTCCGAATGGGGGGTACAGGCTTAGCTTACTCTCATGTAGTTCCT
B21: ssDNA b60 (ssDNA)
DNA: CTACCTACGATCTGACTAGCCCACCGCAGAGTGTTACACCCCATAGGAGAAGTCCGGATGGCTTAGCTTACTCTCATGTAGTTCCT
B22: 66t (ssDNA)
DNA: AACACTTCCCCACTGGATAGAGGCCTTTCGCAGAGCCGGTGCTTA
B23: 10t (ssDNA)
DNA: GTACCATCCACGGTTTACGTGGACAAGAGGGCCCTGGTAC
B24: ssDNA b80 (ssDNA)
DNA: CTACCTACGATCTGACTAGCCCGTCGCGTGACTATAACCACACGCAGACTAGAGTGCAGGGCTTAGCTTACTCTCATGTAGTTCCT
B25: 56t (ssDNA)
DNA: AGGGCCACGTCTATTTAGACTAGAGTGCAGTGGTTC
B26: 26B (ssRNA)
RNA: GGGAGGACGAUGCGGCACCUUCGUGGGGUCAAGGAGGGUCGCGAGGCCGCAGGAUCAACCGUGUGCAGACGACUCGCCCGA
modifications: 2'-NH2 pyrimidines
B27: ssDNA b79 (ssDNA)
DNA: CTACCTACGATCTGACTAGCGAGGCATTAGGTCCGAATGGTAGTAATGCTGTCGTGCCTTGCTTAGCTTACTCTCATGTAGTTCCT
B28: ssDNA 6 (ssDNA)
DNA: ATCCGCCTGATTAGCGATACTATACACCCGGCGGGCCTACCGGATCGTTGATTTCTCTCCACTTGAGCAAAATCACCTGCAGGGG
B29: 15t (ssDNA)
DNA: GTAGTTCCTTTAGGACTAGAGGGCCGCCTAC
B30: ssDNA b56 (ssDNA)
DNA: CTACCTACGATCTGACTAGCGCAGGGCCACGTCTATTTAGACTAGAGTGCAGTGGTTCGCTTACTCTCATGTAGTTCCT
B31: ssDNA 33 (ssDNA)
DNA: ATCCGCCTGATTAGCGATACTTCAAGCACTCCCGTCTTCCAGACAAGAGTGCAGGGCCTCTACTTGAGCAAAATCACCTGCAGGGG
B32: 85t (ssDNA)
DNA: GGAGGTGCGTTGTCCGAAGGGGTCGTTAGTCACCTC
B33: ssDNA b99 (ssDNA)
DNA: CTACCTACGATCTGACTAGCCACGATAATCCTCCGAAAGCGTTGTCCGAATGGGTCGTTAGCTTAGCTTACTCTCATGTAGTTCCT
B34: ssDNA b88 (ssDNA)
DNA: CTACCTACGATCTGACTAGCGCAAGGGGTCCTGCCGAATGGGGGAATACGCTAGCCGAAAGCTTACTCTCATGTAGTTCCT
B35: ssDNA b66 (ssDNA)
DNA: CTACCTACGATCTGACTAGCAACACTTCCCCACTGGATAGAGGCCTTTCGCAGAGCCGGTGCTTAGCTTACTCTCATGTAGTTCCT
B36: 65t (ssDNA)
DNA: CGAGGTCCCCCACTGGATAGAGTTGTTGAAACAACGGTGCGCTTA

Legend:
Details in all cases: tags: gift from N. Ferrara, Genentech; chain copies: 2 (dimer, stated)
[1] = target: T1, VEGF165 (recombinant human vascular endothelial growth factor, 165 aa form) (Homo sapiens, UniProt P15692-4 P15692-4:27-191); assay: filter
T1 sequence (P15692 other isoform, or with tags, fused parts or gaps): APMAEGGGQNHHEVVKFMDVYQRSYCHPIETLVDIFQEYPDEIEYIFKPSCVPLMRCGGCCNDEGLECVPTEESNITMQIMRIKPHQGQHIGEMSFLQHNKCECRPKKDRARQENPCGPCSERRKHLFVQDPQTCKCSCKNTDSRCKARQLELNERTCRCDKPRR

[2] = target: T1, VEGF165 (recombinant human vascular …); assay: filter; Kd1, X1 0.77, Kd2 10-100 nM
[3] = target: T1, VEGF165 (recombinant human vascular …); assay: filter; remark: listed apart in the source
Experimental: Internally-labeled RNA ligands used for binding studies were prepared by in vitro transcription using T7 RNA polymerase (Milligan et al. (1987) Nucl. Acids Res. 15:8783) and were purified on denaturing polyacrylamide gels to ensure size homogeneity. All RNA ligands were diluted to about 1 nM in PBS, denatured at 90° C. for 2 minutes, and then cooled on ice prior to incubation with the protein. This denaturation/renaturation cycle performed at high dilution is necessary to ensure that the RNA is essentially free from dimers and other higher order aggregates. Concentrations of the stock solutions of VEGF, from which other dilutions were made, were determined from the absorbance reading at 280 nm using the calculated value for ε280 of 46,600 M^-1cm^-1 for the VEGF dimer (Gill et al. (1989) Anal. Biochem. 182:319). Data sets that define the binding curves were fit to either eq. 2 or eq. 5 by the non-linear least squares method using the software package Kaleidagraph (Synergy Software, Reading, Pa.).
(§1) To this end, certain ligands were synthesized and tested for binding affinity. The binding studies were performed using the protocols described in Example 1.

[4] = target: T1, VEGF165 (recombinant human vascular …); assay: inhibition; VEGF receptor binding
Experimental: VEGF was radioiodinated by the Iodegen method (Jakeman et al. (1992) J. Clin. Invest. 89:244) to a specific activity of 2.4×10^4 cpm/ng. Human umbilical vein endothelial cells (HUVECs) were plated in 24-well plates at a density of 1–2×10^5 cells/well and grown to confluence in EGM (Clonetics, San Diego, Calif.) media (24–48 hrs). At confluence, the cells were washed 3 times with PBS and incubated for 2 hrs at 4° C. in α-MEM serum-free media containing ^125I-labeled VEGF with or without unlabeled competitor (VEGF, EGF, or RNA). For experiments done with RNA, 0.2 units of placental RNase inhibitor (Promega, Madison, Wis.) were included in the media. […] At the end of the 2 hr incubation period, the supernatant was removed and the wells washed 2 times with PBS. HUVECs were then lysed with 1% triton X-100/1M NaOH and the amount of cell-associated ^125I-VEGF determined by gamma counting.
as §1

[5] = target: T1, VEGF165 (recombinant human vascular …); assay: filter; clone listed in families 1 and 2
[6] = target: T1, VEGF165 (recombinant human vascular …); assay: FP filter; nitrocellulose filter; Kd1, X1 0.62, Kd2 ~100 nM
[7] = target: T1, VEGF165 (recombinant human vascular …); assay: filter; Kd1, X1 0.74, Kd2 ~100 nM

Row | Binder | Kd [1] [nM] | other results
1 | B1 | 2.5 | –
2 | B2 | 0.15 | –
3 | B3 | 19 | –
4 | B4 | – | Kd [2]: 0.034 nM
5 | B5 | > 100 | –
6 | B6 | – | Kd [3]: 65 nM; Ki [4]: 10 nM
7 | B7 | – | Kd [3]: 0.2 nM; Ki [4]: 1 nM
8 | B8 | – | Kd [3]: 120 nM; Ki [4]: 500 nM
9 | B9 | – | Kd [3]: 0.2 nM; Ki [4]: 1 nM
10 | B10 | – | Kd [3]: 0.2 nM; Ki [4]: 1 nM
11 | B11 | – | Kd [3]: 0.7 nM; Ki [4]: 1 nM
12 | B12 | – | Kd [5]: 0.3 nM
13 | B13 | – | Kd [6]: 0.028 nM
14 | B14 | 0.53 | –
15 | B15 | 0.9 | –
16 | B16 | 1 | –
17 | B17 | 0.75 | –
18 | B18 | 0.88 | –

Row | Binder | Kd [1] [nM] | other results
19 | B19 | 12 | –
20 | B20 | 91 | –
21 | B21 | 26 | –
22 | B22 | 0.35 | –
23 | B23 | 5 | –
24 | B24 | 8.1 | –
25 | B25 | 0.2 | –
26 | B26 | – | Kd [7]: 0.37 nM
27 | B27 | 2 | –
28 | B28 | 1 | –
29 | B29 | 3 | –
30 | B30 | 0.5 | –
31 | B31 | 2 | –
32 | B32 | 0.3 | –
33 | B33 | 34 | –
34 | B34 | 34 | –
35 | B35 | 1.3 | –
36 | B36 | 0.32 | –
